Test results from the supplement of paper PMC6757056.
± gives the standard deviation of the averaged measurements.

B1: library; a variant is named by its letters at N, in order (parent)
chain: GCUGUCACCGAGAAACUGUGAAGUAUAUCUUAAACCUGGGCACUUAAAAGAUAUAUGGAGUUAGUAGUGCAACCUGCUCGGUCUGAUGAGUCCNNNNNNGGACGAAACAGC

Tests used:
[1] = variants of: B1; assay: normalized RNA/DNA level without ligand (relative to sTRSVctl = 100) (log10 (% of sTRSVctl)); HEK293T; ligand: cyclic di-GMP (c-di-GMP-II aptamer); higher = less ribozyme self-cleavage, higher mRNA level; details: reporter: mCherry (pCS4076), ligand present: no
Procedure, shortened: (§1)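 Library plasmids encoding reporter-linked ribozyme switches (mCherry, or eGFP for some folinic acid experiments) were transfected into HEK293T at 4 µg per 6-well well. Ligand, when used, was added 1 h before transfection. Total RNA was extracted with EDTA 72 h later, then reverse-transcribed, amplified, barcoded and sequenced. RNA level was RNA reads over DNA reads, divided by a spiked-in non-cleaving control (or the top 25 sequences), ×100, log10; only sequences with ≥100 DNA reads were kept.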

[2] = variants of: B1; assay: normalized RNA/DNA level with ligand (relative to sTRSVctl = 100) (log10 (% of sTRSVctl)); HEK293T; ligand: cyclic di-GMP (c-di-GMP-II aptamer); ligand concentration (+) RNA-Seq: 1 mM; higher = less ribozyme self-cleavage, higher mRNA level; details: reporter: mCherry (pCS4076), ligand present: yes
Procedure, shortened: as §1

Variant	normalized RNA/DNA level without ligand (log10) [1]	normalized RNA/DNA level with ligand (log10) [2]
CAGGCA	1.615 ± 0.0084	1.71 ± 0.13
CAGGCU	1.8 ± 0.012	1.9 ± 0.11
CAGGCG	1.75 ± 0.091	1.88 ± 0.13
GAGCAC	1.82 ± 0.053	1.87 ± 0.077
GAGCAA	1.76 ± 0.023	1.83 ± 0.12
GAGCAU	1.83 ± 0.037	1.91 ± 0.11
AAGGUC	1.61 ± 0.034	1.75 ± 0.077
AAGACU	1.66 ± 0.019	1.84 ± 0.057
UACUGA	1.66 ± 0.044	1.82 ± 0.11
UACUGU	1.6108 ± 0.00033	1.79 ± 0.15
UACUGC	1.712 ± 0.0056	1.83 ± 0.13
UACUGG	1.731 ± 0.015	1.85 ± 0.12
AACUUC	1.714 ± 0.0074	1.82 ± 0.095
AACUUG	1.66 ± 0.051	1.85 ± 0.11
AACUUA	1.615 ± 0.0013	1.79 ± 0.17
AACUUU	1.737 ± 0.004	1.85 ± 0.09
AAGCGG	1.81 ± 0.035	1.88 ± 0.069
AAGCGC	1.669 ± 0.011	1.84 ± 0.13
AAGCGU	1.56 ± 0.021	1.73 ± 0.11
UAGAGC	1.712 ± 0.005	1.85 ± 0.047
UAGAGA	1.51 ± 0.042	1.72 ± 0.089
UAGAGU	1.56 ± 0.066	1.73 ± 0.067
UAGAGG	1.67 ± 0.087	1.82 ± 0.1

Variant	normalized RNA/DNA level without ligand (log10) [1]	normalized RNA/DNA level with ligand (log10) [2]
CAGAUG	1.63 ± 0.0074	1.75 ± 0.13
CAGAUU	1.48 ± 0.11	1.65 ± 0.1
CAGAUC	1.61 ± 0.03	1.71 ± 0.18
CACUGG	1.7 ± 0.035	1.81 ± 0.13
CACUGC	1.76 ± 0.024	1.87 ± 0.096
CACUGA	1.65 ± 0.039	1.77 ± 0.1
GACUUC	1.74 ± 0.038	1.91 ± 0.1
GAGCCG	1.823 ± 0.0091	1.9 ± 0.11
GAGCCC	1.81 ± 0.1	1.92 ± 0.16
GAGCCA	1.79 ± 0.051	1.87 ± 0.1
CAGCGG	1.78 ± 0.032	1.9 ± 0.14
CAGCGC	1.731 ± 0.013	1.87 ± 0.15
CAGCGU	1.701 ± 0.011	1.84 ± 0.088
CAGCGA	1.49 ± 0.1	1.7 ± 0.055
GAGGCC	1.7859 ± 0.0011	1.89 ± 0.048
GAGGCU	1.83 ± 0.046	1.87 ± 0.068
GAGGCA	1.81 ± 0.039	1.86 ± 0.089
GAGGCG	1.817 ± 0.018	1.9 ± 0.14
GAGCUU	1.8 ± 0.045	1.9 ± 0.14
GAGCUC	1.83 ± 0.052	1.91 ± 0.15
GAGCUA	1.79 ± 0.038	1.88 ± 0.11
AACGGG	1.51 ± 0.084	1.68 ± 0.098
AACGGU	1.52 ± 0.049	1.77 ± 0.1

Variant	normalized RNA/DNA level without ligand (log10) [1]	normalized RNA/DNA level with ligand (log10) [2]
AACGGC	1.68 ± 0.017	1.8 ± 0.071
GAGACA	1.8 ± 0.033	1.85 ± 0.088
GAGACG	1.8 ± 0.045	1.83 ± 0.13
UAGCCA	1.71 ± 0.04	1.86 ± 0.1
UAGCCG	1.79 ± 0.063	1.93 ± 0.12
UAGCCU	1.73 ± 0.03	1.86 ± 0.043
UAGAAG	1.61 ± 0.027	1.8 ± 0.11
UAGAAC	1.641 ± 0.014	1.82 ± 0.13
GACUGA	1.57 ± 0.041	1.72 ± 0.12
GACUGC	1.705 ± 0.012	1.88 ± 0.068
GACUGG	1.68 ± 0.074	1.78 ± 0.1
GACUGU	1.654 ± 0.0065	1.8 ± 0.15
UAGACG	1.7073 ± 0.00046	1.87 ± 0.12
UAGACA	1.73 ± 0.058	1.85 ± 0.15
AAGAAG	1.46 ± 0.049	1.66 ± 0.093
CAGGGA	1.53 ± 0.13	1.67 ± 0.067
CAGGGU	1.673 ± 0.014	1.82 ± 0.096
CAGGGG	1.63 ± 0.032	1.74 ± 0.075
CAGGGC	1.73 ± 0.044	1.86 ± 0.16
AAGGAU	1.49 ± 0.097	1.7 ± 0.096
AAGGAC	1.53 ± 0.1	1.73 ± 0.072
AAGGAG	1.54 ± 0.14	1.67 ± 0.053
AAGCCG	1.732 ± 0.0043	1.82 ± 0.069

Variant	normalized RNA/DNA level without ligand (log10) [1]	normalized RNA/DNA level with ligand (log10) [2]
CACGCU	1.722 ± 0.0093	1.84 ± 0.12
CACGCC	1.81 ± 0.044	1.86 ± 0.022
CACGCG	1.73 ± 0.028	1.83 ± 0.062
AAGGCU	1.71 ± 0.088	1.83 ± 0.22
AAGGCC	1.759 ± 0.0039	1.83 ± 0.083
AAGGCA	1.63 ± 0.05	1.71 ± 0.096
AAGGCG	1.728 ± 0.012	1.83 ± 0.091
AACGCA	1.67 ± 0.024	1.83 ± 0.076
AACGCG	1.702 ± 0.008	1.82 ± 0.12
UAGUAA	1.652 ± 0.0068	1.8 ± 0.12
UAGGAC	1.528 ± 0.015	1.73 ± 0.082
UAGGAG	1.59 ± 0.05	1.76 ± 0.13
UAGGAU	1.58 ± 0.049	1.76 ± 0.078
CAGCUC	1.7753 ± 0.00068	1.87 ± 0.099
CAGAAU	1.38 ± 0.13	1.53 ± 0.12
CAGAAC	1.54 ± 0.07	1.75 ± 0.089
CAGAAG	1.68 ± 0.039	1.86 ± 0.092
CACUAC	1.64 ± 0.037	1.77 ± 0.11
CACUAG	1.759 ± 0.017	1.88 ± 0.14
CACUAU	1.52 ± 0.067	1.72 ± 0.076
GAGAUC	1.711 ± 0.0023	1.81 ± 0.11
GAGAUA	1.69 ± 0.015	1.76 ± 0.099
GAGAUG	1.748 ± 0.0058	1.83 ± 0.071

Variant	normalized RNA/DNA level without ligand (log10) [1]	normalized RNA/DNA level with ligand (log10) [2]
AACUGC	1.686 ± 0.0067	1.82 ± 0.089
AACUGU	1.7 ± 0.023	1.85 ± 0.1
UAGGCA	1.68 ± 0.072	1.84 ± 0.13
UAGGCC	1.819 ± 0.0024	1.9 ± 0.095
UAGGCG	1.768 ± 0.013	1.87 ± 0.12
UACGCG	1.81 ± 0.04	1.9 ± 0.11
UACGCA	1.78 ± 0.018	1.89 ± 0.067
UACGCC	1.77 ± 0.021	1.87 ± 0.12
GAGGAA	1.6 ± 0.055	1.72 ± 0.092
GAGGAG	1.752 ± 0.014	1.82 ± 0.081
GAGGAC	1.67 ± 0.053	1.79 ± 0.11
GAGGAU	1.66 ± 0.022	1.77 ± 0.13
CAGUAC	1.6 ± 0.018	1.74 ± 0.14
AACGUU	1.65 ± 0.056	1.82 ± 0.16
AACGUG	1.55 ± 0.083	1.7 ± 0.096
AACGUA	1.51 ± 0.024	1.73 ± 0.1
AACGUC	1.66 ± 0.024	1.78 ± 0.11
CACGUA	1.504 ± 0.014	1.7 ± 0.056
CACGUU	1.729 ± 0.0022	1.86 ± 0.088
CACGUC	1.73 ± 0.075	1.87 ± 0.11
UAGCUU	1.68 ± 0.055	1.81 ± 0.073
UAGCUC	1.75 ± 0.022	1.89 ± 0.1
UAGCUA	1.71 ± 0.038	1.82 ± 0.12
